In patent US20230406937A1 (JANUX THERAPEUTICS, published 2023):

How the values were obtained:
biotinylated human CD28 = target: T1, biotinylated human CD28 (human, UniProt P10747 19-152, limits assumed, biotinylated (site not stated)); test: ELISA, biotinylated antigen captured on neutravidin plates, HRP secondary antibody
T1 construct: also called Human CD28-Biotin
Experimental: (§1) The polypeptide complex molecules were evaluated for their ability to bind human PDL1 or CD28 in a standard enzyme linked immunosorbent assay (ELISA) format. […] Polypeptide complex molecules diluted in buffer were then added to the antigen coated plates. Bound polypeptide complex was detected using a standard horse radish peroxidase conjugate secondary antibody.

biotinylated human PD-L1 = target: T2, biotinylated human PD-L1 (human, UniProt Q9NZQ7 19-238, limits assumed, biotinylated (site not stated)); test: as above
T2 construct: also called Human PDL1-biotin
Experimental: as §1

EC50 (biotinylated human CD28)	EC50 (biotinylated human PD-L1)	Binder
0.91 nM	0.11 nM	Ab-5 (bispecific antibody, Anti-CD28 scFv fused to the heavy chain of anti-PD-L1 Fab 3; no Fc) light: QSALTQPASVSGSPGQSITISCTGTSSDVGGYNYVSWYQQHPGKAPKLMIYDVSNRPSGVSNRFSGSKSGNTASLTISGLQAEDEADYYCSSYTSSSTRVFGTGTKVTVLGQPKANPTVTLFPPSSEELQANKATLVCLISDFYPGAVTVAWKADGSPVKAGVETTKPSKQSNNKYAASSYLSLTPEQWKSHRSYSCQVTHEGSTVEKTVAPTECS heavy: not shown
1.89 nM	0.28 nM	Ab-6 (bispecific antibody, Anti-CD28 scFv fused to the light chain of anti-PD-L1 Fab 3; no Fc) light: not shown heavy: EVQLLESGGGLVQPGGSLRLSCAASGFTFSSYIMMWVRQAPGKGLEWVSSIYPSGGITFYADTVKGRFTISRDNSKNTLYLQMNSLRAEDTAVYYCARIKLGTVTTVDYWGQGTLVTVSSASTKGPSVFPLAPSSKSTSGGTAALGCLVKDYFPEPVTVSWNSGALTSGVHTFPAVLQSSGLYSLSSVVTVPSSSLGTQTYICNVNHKPSNTKVDKKVEPKSC
